Assay results from patent publication US20110091562A1 (GEORGIA TECH RESEARCH, published 2011).

B1: Scrambled (SCR) peptide (DYPSMAMYSPSVC) conjugated to core/shell pNIPMAm nanogels (peptide)
peptide: DYPSMAMYSPSVC
modifications: C-terminal cysteine coupled by maleimide (EMCA) to primary amines of the nanogel shell
notes: Control peptide with the same amino acid composition as YSA, tethered to the same nanogels; also called SCR-pNIPMAm nanogels; SCR-labeled nanogels
B2: YSA peptide (YSAYPDSVPMMSC) conjugated to core/shell pNIPMAm nanogels (peptide)
peptide: YSAYPDSVPMMSC
modifications: C-terminal cysteine coupled by maleimide (epsilon-maleimidocaproic acid, EMCA) to primary amines of the nanogel shell
notes: The peptide that was made and conjugated carries the C-terminal Cys; also called YSA-conjugated nanogels; YSA-pNIPMAm nanogels

Assays:
[1] = target: T1, erythropoietin-producing hepatocellular (Eph) A2 receptor (UniProt P29317 24-976, limits assumed); test: flow cytometry on Hey cells after 4 h incubation with fluorescent nanogels
T1 construct: whole, on cells; Endogenous receptor on ovarian cancer cell lines
Protocol: (§1) Flow cytometry. Hey cells were plated at 2.5×10⁵ cells/well in a 12-well, cell culture plate. Cells were allowed to adhere overnight in an incubator at 37° C. in a 5% CO₂ atmosphere. Cells were washed, and fresh medium was added containing YSA-pNIPMAm or SCR-pNIPMAm nanogels at a concentration of 0.8 mg/mL and incubated for four hours. Following incubation, the cells were washed with PBS and removed from the plate by Trypsin-EDTA treatment. The cells were washed with PBS and fixed with 2% (v/v) paraformaldehyde. Cells were analyzed using a LSR Flow Cytometer (BD Biosciences). Data analysis was carried out using FlowJo software.

[2] = target: T1, erythropoietin-producing hepatocellular …; test: flow cytometry on Hey cells, 0.8 mg/mL fluorescent nanogels, 4 h incubation; reference is SCR-labeled nanogels
Protocol: as §1

T1 sequence (P29317 24-976 limits assumed): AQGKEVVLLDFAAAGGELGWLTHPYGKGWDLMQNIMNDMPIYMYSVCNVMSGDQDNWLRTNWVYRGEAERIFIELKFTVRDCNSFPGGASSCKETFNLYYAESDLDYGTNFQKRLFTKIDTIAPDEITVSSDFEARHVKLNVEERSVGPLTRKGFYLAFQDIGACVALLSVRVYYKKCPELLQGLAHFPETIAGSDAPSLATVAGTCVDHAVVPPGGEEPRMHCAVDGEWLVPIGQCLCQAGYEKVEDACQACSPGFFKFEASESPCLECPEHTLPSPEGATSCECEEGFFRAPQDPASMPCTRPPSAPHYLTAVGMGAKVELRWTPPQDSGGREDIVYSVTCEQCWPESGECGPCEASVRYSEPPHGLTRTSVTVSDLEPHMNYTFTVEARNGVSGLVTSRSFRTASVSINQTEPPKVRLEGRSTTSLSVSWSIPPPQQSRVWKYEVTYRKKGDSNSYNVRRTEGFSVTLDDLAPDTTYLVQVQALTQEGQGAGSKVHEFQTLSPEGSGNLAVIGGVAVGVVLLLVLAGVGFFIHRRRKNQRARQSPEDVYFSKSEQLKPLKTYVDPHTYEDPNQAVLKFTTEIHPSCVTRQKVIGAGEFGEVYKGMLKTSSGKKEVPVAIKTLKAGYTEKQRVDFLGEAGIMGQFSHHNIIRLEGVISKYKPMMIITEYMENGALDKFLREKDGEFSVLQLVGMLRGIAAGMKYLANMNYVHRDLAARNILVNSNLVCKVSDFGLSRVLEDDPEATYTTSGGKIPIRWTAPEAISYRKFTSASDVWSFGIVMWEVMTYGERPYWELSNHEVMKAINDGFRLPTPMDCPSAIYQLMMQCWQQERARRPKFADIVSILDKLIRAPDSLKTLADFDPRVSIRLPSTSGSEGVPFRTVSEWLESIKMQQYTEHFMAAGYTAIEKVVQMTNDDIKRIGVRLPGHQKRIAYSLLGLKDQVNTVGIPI

Row | Binder | binding result [1] | fold fluorescence relative to SCR-labeled nanogels [2]
1 | B1 | no binding (tested: 0.8 mg/mL nanogels) | 
2 | B2 |  | ~10 fold
